# T1: GST-Dsl1p (Saccharomyces cerevisiae, UniProt P53847)
# T1 construct: when introduced into full length GST-Dsl1p; made in house; host or cells: E. coli (BL21DE3 or C41DE3)
# T1 sequence (P53847 1-754): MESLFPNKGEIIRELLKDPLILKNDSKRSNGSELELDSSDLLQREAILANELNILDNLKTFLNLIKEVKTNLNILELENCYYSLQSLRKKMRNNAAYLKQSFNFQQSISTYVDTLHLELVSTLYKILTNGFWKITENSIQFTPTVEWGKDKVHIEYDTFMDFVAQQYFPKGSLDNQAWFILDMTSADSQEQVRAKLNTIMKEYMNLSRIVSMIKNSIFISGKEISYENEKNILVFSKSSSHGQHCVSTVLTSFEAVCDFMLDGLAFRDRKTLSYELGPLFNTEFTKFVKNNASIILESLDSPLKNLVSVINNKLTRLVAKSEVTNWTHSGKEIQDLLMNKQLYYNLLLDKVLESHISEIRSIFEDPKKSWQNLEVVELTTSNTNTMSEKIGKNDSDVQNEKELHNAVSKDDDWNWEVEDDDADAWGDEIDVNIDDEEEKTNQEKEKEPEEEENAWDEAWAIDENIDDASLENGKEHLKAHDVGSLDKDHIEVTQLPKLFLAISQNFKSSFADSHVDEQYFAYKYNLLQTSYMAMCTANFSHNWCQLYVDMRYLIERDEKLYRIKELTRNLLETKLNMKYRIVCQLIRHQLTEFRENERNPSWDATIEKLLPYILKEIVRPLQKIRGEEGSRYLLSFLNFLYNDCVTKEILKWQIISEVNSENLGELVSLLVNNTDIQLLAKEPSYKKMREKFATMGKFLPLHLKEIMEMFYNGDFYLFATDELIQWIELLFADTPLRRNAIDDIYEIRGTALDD
# T2: GST-Dsl1p (S. cerevisiae (yeast), UniProt P53847 1-754)
# T2 construct: Made in E. coli and immobilised on glutathione-Sepharose 4B; also called GST-tagged Dsl1p; full length GST-Dsl1p; not shown: glutathione S-transferase (GST) encoded by pGEX-TT (pGEX-2T with modified polylinker); placement and linker residues not
# T2 sequence (looked up): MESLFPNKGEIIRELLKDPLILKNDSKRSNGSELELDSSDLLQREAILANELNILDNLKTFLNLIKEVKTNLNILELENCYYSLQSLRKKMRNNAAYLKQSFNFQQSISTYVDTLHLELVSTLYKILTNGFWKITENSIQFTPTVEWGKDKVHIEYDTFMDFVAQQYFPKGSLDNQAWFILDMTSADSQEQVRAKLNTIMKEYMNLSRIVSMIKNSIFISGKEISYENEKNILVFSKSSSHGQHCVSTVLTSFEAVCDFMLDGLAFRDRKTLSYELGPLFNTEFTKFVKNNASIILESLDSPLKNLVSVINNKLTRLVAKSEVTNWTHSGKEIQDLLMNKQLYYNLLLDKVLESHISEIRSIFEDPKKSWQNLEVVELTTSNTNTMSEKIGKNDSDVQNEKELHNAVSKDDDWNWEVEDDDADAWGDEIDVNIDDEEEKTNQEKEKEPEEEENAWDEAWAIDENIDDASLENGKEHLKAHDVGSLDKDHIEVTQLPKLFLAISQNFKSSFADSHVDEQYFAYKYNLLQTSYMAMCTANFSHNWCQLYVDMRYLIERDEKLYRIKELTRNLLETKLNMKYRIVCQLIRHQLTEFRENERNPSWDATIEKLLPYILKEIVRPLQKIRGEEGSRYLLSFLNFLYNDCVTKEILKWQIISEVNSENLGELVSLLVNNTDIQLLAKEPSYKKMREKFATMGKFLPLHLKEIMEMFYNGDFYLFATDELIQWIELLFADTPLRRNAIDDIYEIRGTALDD
# Experiments:
# GST-Dsl1p [1] = target: T1, GST-Dsl1p; experiment: peptide spot overlay assay: 13-mer δ-COP peptides on cellulose membrane; format: binding; conditions: 13-mer peptides spanning amino acids 191-302 of δ-COP; detection with anti-Dsl1p antibodies
# From the text: To further delineate the Dsl1p binding domain in δ-COP 13-mer peptides spanning amino acids 191-302 of δ-COP were synthesized on a cellulose membrane (overlap in sequence by 10 amino acids; Jerini; Berlin, Germany) and probed with to GST-Dsl1p. Anti-Dsllp antibodies were used to detect bound GST-Dsl1p. […] We cannot exclude that peptides from position 248 to 270 also bind to Dsl1p since anti-Dsl1 antibody alone gave already a weak signal with peptides derived from this region. […] To this resin we applied crude extract of E. coli cells producing a chimeric protein consisting of GST and the δ-COP binding domain (GST-L4, "WxW"; L4 = D-type-polypeptide; SED ID NO 1 ([…]-NIDDEEEKT)). After washing thoroughly, bound proteins were eluted and analyzed by SDS-PAGE followed by Coomassie staining. […]
# To analyze the Ds11p binding region within the Ret2 protein overlapping 13-mer peptides (overlap 10 residues each) spanning the region between residue 191 and 302 were directly synthesized on a cellulose membrane (Jerini; Berlin, Germany). […] After 2 h incubation with purified GST-Ds11p in blocking buffer, the membrane was washed three times with Tris/HCl-buffer and bound GST-Ds11p was detected by using α-Dsl1p antibodies and the ECL detection system (AmershamPharmaciaBiotech).
# GST-Dsl1p [2] = target: T2, GST-Dsl1p; experiment: peptide spot overlay on cellulose membrane, detected with anti-Dsl1p antibodies
signal of bound GST-Dsl1p (GST-Dsl1p [1]),binding result (GST-Dsl1p [2]),Molecule
strongest signal,–,"R-type-peptide: peptide representing residues 242 to 254 of δ-COP, RAGHSATGGMKLG"
–,binds,"RAGHSATGGMKLG (A spot on a peptide array of 13-mers that overlap by 10 residues and span aa 191-302; also called R-type-peptide) [13-mer peptide representing residues 242 to 254 of δ-COP, synthesized on a cellulose membrane]"
